Assay results from publication PMC3709441 (The Biochemical journal, 2009).

T1: RnPP5 TPR wild type (rat protein phosphatase 5 TPR domain) (rat)
T1 sequence (P53042 whole entry, looked up): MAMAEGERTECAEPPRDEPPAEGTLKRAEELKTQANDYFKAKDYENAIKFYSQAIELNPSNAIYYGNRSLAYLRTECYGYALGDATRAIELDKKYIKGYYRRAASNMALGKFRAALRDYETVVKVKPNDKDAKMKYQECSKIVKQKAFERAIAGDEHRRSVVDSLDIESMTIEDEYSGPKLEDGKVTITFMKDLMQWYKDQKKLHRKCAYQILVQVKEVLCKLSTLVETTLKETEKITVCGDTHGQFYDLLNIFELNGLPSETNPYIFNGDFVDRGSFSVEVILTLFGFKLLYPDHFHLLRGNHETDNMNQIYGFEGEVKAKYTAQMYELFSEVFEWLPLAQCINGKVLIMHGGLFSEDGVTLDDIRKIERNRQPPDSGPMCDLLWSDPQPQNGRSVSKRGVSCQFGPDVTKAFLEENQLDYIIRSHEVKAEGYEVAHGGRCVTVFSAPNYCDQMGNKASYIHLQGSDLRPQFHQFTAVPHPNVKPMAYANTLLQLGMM

T2: HsPP5 TPR (human protein phosphatase 5 TPR domain, amino acids 1-181) (human, UniProt P53041 1-181)
T2 sequence (looked up): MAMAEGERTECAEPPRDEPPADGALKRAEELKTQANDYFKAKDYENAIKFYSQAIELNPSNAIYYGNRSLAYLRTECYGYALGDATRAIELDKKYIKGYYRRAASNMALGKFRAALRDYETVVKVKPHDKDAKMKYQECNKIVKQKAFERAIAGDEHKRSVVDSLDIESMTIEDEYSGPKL


Columns and labels:
Assay in all cases: ELISA
RnPP5 TPR E29A (rat) = target: RnPP5 TPR E29A (rat)
RnPP5 TPR Y80A (rat) = target: RnPP5 TPR Y80A (rat)
RnPP5 TPR R117A (rat) = target: RnPP5 TPR R117A (rat)
RnPP5 TPR E76A (rat) = target: RnPP5 TPR E76A (rat)
RnPP5 TPR E56A (rat) = target: RnPP5 TPR E56A (rat)
RnPP5 TPR R113A (rat) = target: RnPP5 TPR R113A (rat)
RnPP5 TPR R74A (rat) = target: RnPP5 TPR R74A (rat)
RnPP5 TPR K40A (rat) = target: RnPP5 TPR K40A (rat)
RnPP5 TPR I63A (rat) = target: RnPP5 TPR I63A (rat)
[1] = target: T1, RnPP5 TPR wild type (rat protein phosphatase 5 TPR domain) (rat)
RnPP5 TPR K32A (rat) = target: RnPP5 TPR K32A (rat)
RnPP5 TPR R101A (rat) = target: RnPP5 TPR R101A (rat)
[2] = target: HsHop TPR1 (amino acids 1-118) (human, UniProt P31948 1-118)
[3] = target: T2, HsPP5 TPR (human protein phosphatase 5 …)
[4] = target: HsHop TPR2A (amino acids 223-352) (human, UniProt P31948 223-352)
[5] = target: HsHop TPR2B (amino acids 353-477) (human, UniProt P31948 353-477)
HsHop TPR2B (amino acids 353-477), sequence (P31948 353-477): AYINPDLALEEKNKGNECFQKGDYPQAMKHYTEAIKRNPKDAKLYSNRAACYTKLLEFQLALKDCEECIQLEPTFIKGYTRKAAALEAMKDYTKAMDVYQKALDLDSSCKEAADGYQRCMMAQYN

HsHop TPR2A (amino acids 223-352), sequence (P31948 223-352): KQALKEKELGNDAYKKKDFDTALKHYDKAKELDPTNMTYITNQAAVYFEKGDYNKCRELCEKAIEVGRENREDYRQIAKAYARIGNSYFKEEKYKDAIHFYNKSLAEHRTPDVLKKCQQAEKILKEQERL
HsHop TPR1 (amino acids 1-118), sequence (P31948 1-118): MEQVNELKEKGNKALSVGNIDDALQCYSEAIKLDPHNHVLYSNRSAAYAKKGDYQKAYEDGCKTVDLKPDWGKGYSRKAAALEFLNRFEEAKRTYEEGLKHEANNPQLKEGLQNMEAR

Molecule	A405 (ELISA) (absorbance at 405 nm) (RnPP5 TPR E29A (rat))	A405 (ELISA) (absorbance at 405 nm) (RnPP5 TPR Y80A (rat))	A405 (ELISA) (absorbance at 405 nm) (RnPP5 TPR R117A (rat))	A405 (ELISA) (absorbance at 405 nm) (RnPP5 TPR E56A (rat))	A405 (ELISA) (absorbance at 405 nm) (RnPP5 TPR R113A (rat))	A405 (ELISA) (absorbance at 405 nm) (RnPP5 TPR R74A (rat))	A405 (ELISA) (absorbance at 405 nm) (RnPP5 TPR R101A (rat))	also measured
hsp90 C-12 control phage, displayed peptide … (the 12 residues located at the C-terminus of hsp90)	1.06	1.09	1.06	1.08	0.72	–	–	A405 (ELISA) (absorbance at 405 nm) (RnPP5 TPR E76A (rat)): 1.12
RFQQMNQSWDVD [T7 phage #1 (VD phage #1), displayed peptide …]	–	1.08	1	–	0.84	0.75	–	A405 (ELISA) (absorbance at 405 nm) (RnPP5 TPR K40A (rat)): 1.01; A405 (ELISA) (absorbance at 405 nm) (RnPP5 TPR I63A (rat)): 0.84; A405 (ELISA) (absorbance at 405 nm) [1]: 1.14
RLLSADDDVLFG [LFG phage #1, displayed peptide …]	–	–	0.8	0.78	0.66	–	0.53	A405 (ELISA) (absorbance at 405 nm) (RnPP5 TPR K32A (rat)): 0.74
NAHLRLEMNDVD [T7 phage #7 (VD phage with a -4 methionine), displayed peptide NAHLRLEMNDVD]	–	–	–	–	–	–	–	A405 (ELISA) [2]: 0.32 absorbance at 405 nm; A405 (ELISA) [3]: 0.56 absorbance at 405 nm; A405 (ELISA) [4]: 0.04 absorbance at 405 nm
KHTVADDELLFG [LFG phage #2, displayed peptide …]	0.75	–	0.78	–	0.74	0.75	0.54	–
GDDDTSRMEEVD	–	–	–	–	–	–	–	A405 (ELISA) [5]: 0.24 absorbance at 405 nm
